In patent US20240400685A1 (Genmab, published 2024):

Molecular target: human CD3 epsilon (human, UniProt P07766 23-207)
Assay: cell-based or functional assay

Sequence of human CD3 epsilon (P07766 23-207): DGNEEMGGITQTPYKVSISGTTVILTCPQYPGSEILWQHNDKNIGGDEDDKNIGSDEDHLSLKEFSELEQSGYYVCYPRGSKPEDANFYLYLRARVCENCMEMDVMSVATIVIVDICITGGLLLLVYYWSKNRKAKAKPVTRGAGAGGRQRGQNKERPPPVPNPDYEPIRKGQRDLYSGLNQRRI

B1: epcoritamab CIEX-HPLC pre-acidic 1 fraction (bispecific antibody, human IgG1, kappa, lambda)
heavy 1: not shown
light 1: not shown
heavy 2: EVQLVESGGGLVQPDRSLRLSCAASGFTFHDYAMHWVRQAPGKGLEWVSTISWNSGTIGYADSVKGRFTISRDNAKNSLYLQMNSLRAEDTALYYCAKDIQYGNYYYGMDVWGQGTTVTVSSASTKGPSVFPLAPSSKSTSGGTAALGCLVKDYFPEPVTVSWNSGALTSGVHTFPAVLQSSGLYSLSSVVTVPSSSLGTQTYICNVNHKPSNTKVDKRVEPKSCDKTHTCPPCPAPEFEGGPSVFLFPPKPKDTLMISRTPEVTCVVVAVSHEDPEVKFNWYVDGVEVHNAKTKPREEQYNSTYRVVSVLTVLHQDWLNGKEYKCKVSNKALPAPIEKTISKAKGQPREPQVYTLPPSREEMTKNQVSLTCLVKGFYPSDIAVEWESNGQPENNYKTTPPVLDSDGSFFLYSRLTVDKSRWQQGNVFSCSVMHEALHNHYTQKSLSLSPG
light 2: not shown
modifications: N103 deamidated (49.9 rel %); N106 deamidated (15.1 rel %); residual signal peptide SEA before N-terminal E1 (42.9 rel %); trace levels of a 3005a HC fragment around N103/N106
  Biological Activity (rel %), T-cell activation assay: 6 rel %

B2: epcoritamab CIEX-HPLC acidic 2a fraction (bispecific antibody, human IgG1, kappa, lambda)
heavy 1: not shown
light 1: not shown
heavy 2: EVQLVESGGGLVQPDRSLRLSCAASGFTFHDYAMHWVRQAPGKGLEWVSTISWNSGTIGYADSVKGRFTISRDNAKNSLYLQMNSLRAEDTALYYCAKDIQYGNYYYGMDVWGQGTTVTVSSASTKGPSVFPLAPSSKSTSGGTAALGCLVKDYFPEPVTVSWNSGALTSGVHTFPAVLQSSGLYSLSSVVTVPSSSLGTQTYICNVNHKPSNTKVDKRVEPKSCDKTHTCPPCPAPEFEGGPSVFLFPPKPKDTLMISRTPEVTCVVVAVSHEDPEVKFNWYVDGVEVHNAKTKPREEQYNSTYRVVSVLTVLHQDWLNGKEYKCKVSNKALPAPIEKTISKAKGQPREPQVYTLPPSREEMTKNQVSLTCLVKGFYPSDIAVEWESNGQPENNYKTTPPVLDSDGSFFLYSRLTVDKSRWQQGNVFSCSVMHEALHNHYTQKSLSLSPG
light 2: not shown
modifications: N103 deamidated (29.6 rel %); N106 deamidated (22.6 rel %); non-consensus glycosylation A1F at N106 (15.0 rel %); residual signal peptide SEA before N-terminal E1 (26.9 rel %)
  Biological Activity (rel %), T-cell activation assay: 25 rel %

B3: epcoritamab CIEX-HPLC acidic 1 fraction (bispecific antibody, human IgG1, kappa, lambda)
heavy 1: not shown
light 1: not shown
heavy 2: EVQLVESGGGLVQPDRSLRLSCAASGFTFHDYAMHWVRQAPGKGLEWVSTISWNSGTIGYADSVKGRFTISRDNAKNSLYLQMNSLRAEDTALYYCAKDIQYGNYYYGMDVWGQGTTVTVSSASTKGPSVFPLAPSSKSTSGGTAALGCLVKDYFPEPVTVSWNSGALTSGVHTFPAVLQSSGLYSLSSVVTVPSSSLGTQTYICNVNHKPSNTKVDKRVEPKSCDKTHTCPPCPAPEFEGGPSVFLFPPKPKDTLMISRTPEVTCVVVAVSHEDPEVKFNWYVDGVEVHNAKTKPREEQYNSTYRVVSVLTVLHQDWLNGKEYKCKVSNKALPAPIEKTISKAKGQPREPQVYTLPPSREEMTKNQVSLTCLVKGFYPSDIAVEWESNGQPENNYKTTPPVLDSDGSFFLYSRLTVDKSRWQQGNVFSCSVMHEALHNHYTQKSLSLSPG
light 2: not shown
modifications: N103 deamidated (85.3 rel %); residual signal peptide SEA before N-terminal E1 (13.0 rel %)
  Biological Activity (rel %), T-cell activation assay: 9 rel %

B4: epcoritamab CIEX-HPLC acidic 3 fraction (bispecific antibody, human IgG1, kappa, lambda)
heavy 1: not shown
light 1: not shown
heavy 2: EVQLVESGGGLVQPDRSLRLSCAASGFTFHDYAMHWVRQAPGKGLEWVSTISWNSGTIGYADSVKGRFTISRDNAKNSLYLQMNSLRAEDTALYYCAKDIQYGNYYYGMDVWGQGTTVTVSSASTKGPSVFPLAPSSKSTSGGTAALGCLVKDYFPEPVTVSWNSGALTSGVHTFPAVLQSSGLYSLSSVVTVPSSSLGTQTYICNVNHKPSNTKVDKRVEPKSCDKTHTCPPCPAPEFEGGPSVFLFPPKPKDTLMISRTPEVTCVVVAVSHEDPEVKFNWYVDGVEVHNAKTKPREEQYNSTYRVVSVLTVLHQDWLNGKEYKCKVSNKALPAPIEKTISKAKGQPREPQVYTLPPSREEMTKNQVSLTCLVKGFYPSDIAVEWESNGQPENNYKTTPPVLDSDGSFFLYSRLTVDKSRWQQGNVFSCSVMHEALHNHYTQKSLSLSPG
light 2: not shown
modifications: N106 deamidated (76.0 rel %); trace levels of N103 deamidation
  Biological Activity (rel %), T-cell activation assay: 90 rel %

B5: epcoritamab CIEX-HPLC acidic 2b fraction (bispecific antibody, human IgG1, kappa, lambda)
heavy 1: not shown
light 1: not shown
heavy 2: EVQLVESGGGLVQPDRSLRLSCAASGFTFHDYAMHWVRQAPGKGLEWVSTISWNSGTIGYADSVKGRFTISRDNAKNSLYLQMNSLRAEDTALYYCAKDIQYGNYYYGMDVWGQGTTVTVSSASTKGPSVFPLAPSSKSTSGGTAALGCLVKDYFPEPVTVSWNSGALTSGVHTFPAVLQSSGLYSLSSVVTVPSSSLGTQTYICNVNHKPSNTKVDKRVEPKSCDKTHTCPPCPAPEFEGGPSVFLFPPKPKDTLMISRTPEVTCVVVAVSHEDPEVKFNWYVDGVEVHNAKTKPREEQYNSTYRVVSVLTVLHQDWLNGKEYKCKVSNKALPAPIEKTISKAKGQPREPQVYTLPPSREEMTKNQVSLTCLVKGFYPSDIAVEWESNGQPENNYKTTPPVLDSDGSFFLYSRLTVDKSRWQQGNVFSCSVMHEALHNHYTQKSLSLSPG
light 2: not shown
modifications: N106 deamidated (61.4 rel %); N103 deamidated (5.8 rel %); non-consensus glycosylation G2F (3.4 rel %) and A1F at N106; residual signal peptide SEA before N-terminal E1 (12.1 rel %)
  Biological Activity (rel %), T-cell activation assay: 28 rel %
